Laboratory results taken from article PMC9719739.

Target: CaV1.2 C-terminal domain, residues 1520-1669 (two channel EF-hand motifs, pre-IQ and IQ-motif) (rabbit) (UniProt P15381)
Assay: SEC

Sequence of UniProt P15381 (P15381 1520-1669): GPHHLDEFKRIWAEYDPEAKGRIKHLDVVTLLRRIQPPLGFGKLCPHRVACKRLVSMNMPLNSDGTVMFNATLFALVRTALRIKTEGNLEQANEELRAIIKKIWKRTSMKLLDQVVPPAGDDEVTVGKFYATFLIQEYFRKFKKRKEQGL

Substance: Calmodulin (from UniProt P0DP23 1-149) (natural protein)
- stoichiometry N (CaM per CT(1520-1669) (4:4)): 1
